Common to all, as to test: FP
One assay deals with T1, SIRT1 NTD(3HB)-CD (Homo sapiens, UniProt Q96EB6).
T1 chain: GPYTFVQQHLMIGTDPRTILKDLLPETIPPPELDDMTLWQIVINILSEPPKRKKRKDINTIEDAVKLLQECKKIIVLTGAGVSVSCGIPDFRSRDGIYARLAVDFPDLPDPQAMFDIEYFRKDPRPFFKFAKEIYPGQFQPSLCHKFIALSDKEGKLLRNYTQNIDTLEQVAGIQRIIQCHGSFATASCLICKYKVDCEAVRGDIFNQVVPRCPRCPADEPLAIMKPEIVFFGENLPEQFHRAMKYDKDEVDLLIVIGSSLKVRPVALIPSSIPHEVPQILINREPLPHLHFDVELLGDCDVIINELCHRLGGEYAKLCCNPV

The target in another assay is T2, SIRT1 NTD(3HB) (Homo sapiens, UniProt Q96EB6).
T2 chain: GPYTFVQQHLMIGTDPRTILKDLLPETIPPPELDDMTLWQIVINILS

The target in a further assay is T3, SIRT1 CD (Homo sapiens, UniProt Q96EB6).
T3 chain: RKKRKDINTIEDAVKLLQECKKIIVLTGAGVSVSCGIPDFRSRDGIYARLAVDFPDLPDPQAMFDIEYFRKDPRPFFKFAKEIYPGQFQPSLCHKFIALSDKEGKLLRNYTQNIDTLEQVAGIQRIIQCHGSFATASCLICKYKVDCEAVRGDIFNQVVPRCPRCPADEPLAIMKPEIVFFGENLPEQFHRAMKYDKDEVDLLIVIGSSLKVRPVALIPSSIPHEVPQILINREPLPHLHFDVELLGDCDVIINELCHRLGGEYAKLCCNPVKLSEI

This passage reports Kd results from PMC12594183 (2026).

B1: PPARγ DBD-LBD (protein)
chain: AIECRVCGDKASGFHYGVHACEGCKGFFRRTIRLKLIYDRCDLNCRIHKKSRNKCQYCRFQKCLAVGMSHNAIRFGRMPQAEKEKLLAEISSDIDQLNPESADLRALAKHLYDSYIKSFPLTKAKARAILTGKTTDKSPFVIYDMNSLMMGEDKIKFKHITPLQEQSKEVAIRIFQGCQFRSVEAVQEITEYAKSIPGFVNLDLNDQVTLLKYGVHEIIYTMLASLMNKDGVLISEGQGFMTREFLKSLRKPFGDFMEPKFEFAVKFNALELDDSDLAIFIAVIILSGDRPGLLNVKPIEDIQDNLLQALELQLKLNHPESSQLFAKLLQKMTDLRQIVTEHVQLLQVIKKTETDMSLHPLLQEIYKDLY
modifications: Rosiglitazone
For the molecule B1, the Kd in the assay with SIRT1 NTD(3HB)-CD was found to be 690 nM.

B2: PPARγ DBD-LBD (protein)
chain: AIECRVCGDKASGFHYGVHACEGCKGFFRRTIRLKLIYDRCDLNCRIHKKSRNKCQYCRFQKCLAVGMSHNAIRFGRMPQAEKEKLLAEISSDIDQLNPESADLRALAKHLYDSYIKSFPLTKAKARAILTGKTTDKSPFVIYDMNSLMMGEDKIKFKHITPLQEQSKEVAIRIFQGCQFRSVEAVQEITEYAKSIPGFVNLDLNDQVTLLKYGVHEIIYTMLASLMNKDGVLISEGQGFMTREFLKSLRKPFGDFMEPKFEFAVKFNALELDDSDLAIFIAVIILSGDRPGLLNVKPIEDIQDNLLQALELQLKLNHPESSQLFAKLLQKMTDLRQIVTEHVQLLQVIKKTETDMSLHPLLQEIYKDLY
In turn, B2 came in with a Kd in the assay with SIRT1 NTD(3HB)-CD of 1900 nM.

B3: PPARγ DBD-LBD (protein)
chain: AIECRVCGDKASGFHYGVHACEGCKGFFRRTIRLKLIYDRCDLNCRIHKKSRNKCQYCRFQKCLAVGMSHNAIRFGRMPQAEKEKLLAEISSDIDQLNPESADLRALAKHLYDSYIKSFPLTKAKARAILTGKTTDKSPFVIYDMNSLMMGEDKIKFKHITPLQEQSKEVAIRIFQGCQFRSVEAVQEITEYAKSIPGFVNLDLNDQVTLLKYGVHEIIYTMLASLMNKDGVLISEGQGFMTREFLKSLRKPFGDFMEPKFEFAVKFNALELDDSDLAIFIAVIILSGDRPGLLNVKPIEDIQDNLLQALELQLKLNHPESSQLFAKLLQKMTDLRQIVTEHVQLLQVIKKTETDMSLHPLLQEIYKDLY
modifications: NAD+
Molecule B3 returned a Kd in the assay with SIRT1 NTD(3HB)-CD of 1670 nM.

B4: PPARγ LBD (protein)
chain: PESADLRALAKHLYDSYIKSFPLTKAKARAILTGKTTDKSPFVIYDMNSLMMGEDKIKFKHITPLQEQSKEVAIRIFQGCQFRSVEAVQEITEYAKSIPGFVNLDLNDQVTLLKYGVHEIIYTMLASLMNKDGVLISEGQGFMTREFLKSLRKPFGDFMEPKFEFAVKFNALELDDSDLAIFIAVIILSGDRPGLLNVKPIEDIQDNLLQALELQLKLNHPESSQLFAKLLQKMTDLRQIVTEHVQLLQVIKKTETDMSLHPLLQEIYKDLY
Turning to B4, the figures for the Kd in the assay with SIRT1 NTD(3HB)-CD, in the assay with SIRT1 NTD(3HB) and in the assay with SIRT1 CD were 240 nM, 6550 nM and 1620 nM, respectively.

B5: PPARγ LBD (protein)
chain: PESADLRALAKHLYDSYIKSFPLTKAKARAILTGKTTDKSPFRIYDMNSLMMGEDKIKFKHITPLQEQSKEVAIRIFQGCQFRSVEAVQEITEYAKSIPGFVNLDLNDQVTLLKYGVHEIIYTMLASLMNKDGVLISEGQGFMTREFLKSLRKPFGDFMEPKFEFAVKFNALELDDSDLAIFIAVIILSGDRPGLLNVKPIEDIQDNLLQALELQLKLNHPESSQLFAKLLQKMTDLRQIVTEHVQLLQVIKKTETDMSLHPLLQEIYKDLY
Consider B5, for which binding with SIRT1 NTD(3HB)-CD was characterised by a dissociation constant (Kd) of 810 nM.

B6: PPARγ LBD (protein)
chain: PESADLRALAKHLYDSYIKSFPLTKAKARAIRTGKTTDKSPFVIYDMNSLMMGEDKIKFKHITPLQEQSKEVAIRIFQGCQFRSVEAVQEITEYAKSIPGFVNLDLNDQVTLLKYGVHEIIYTMLASLMNKDGVLISEGQGFMTREFLKSLRKPFGDFMEPKFEFAVKFNALELDDSDLAIFIAVIILSGDRPGLLNVKPIEDIQDNLLQALELQLKLNHPESSQLFAKLLQKMTDLRQIVTEHVQLLQVIKKTETDMSLHPLLQEIYKDLY
In the assay with SIRT1 NTD(3HB)-CD, B6 returned a Kd of 170 nM.

B7: PPARγ LBD (protein)
chain: PESADLRALAKHLYDSYIKSFPLTKAKARAILTGQTTDKSPFVIYDMNSLMMGEDKIKFKHITPLQEQSKEVAIRIFQGCQFRSVEAVQEITEYAKSIPGFVNLDLNDQVTLLKYGVHEIIYTMLASLMNKDGVLISEGQGFMTREFLKSLRKPFGDFMEPKFEFAVKFNALELDDSDLAIFIAVIILSGDRPGLLNVKPIEDIQDNLLQALELQLKLNHPESSQLFAKLLQKMTDLRQIVTEHVQLLQVIKKTETDMSLHPLLQEIYKDLY
B7 registered a Kd with SIRT1 NTD(3HB)-CD of 560 nM.

B8: PPARγ LBD (protein)
chain: PESADLRALAKHLYDSYIKSFPLTKAKARAILTGKTTDKSPFVIYDMNSLMMGEDKIKFKHITPLDEQSKEVAIRIFQGCQFRSVEAVQEITEYAKSIPGFVNLDLNDQVTLLKYGVHEIIYTMLASLMNKDGVLISEGQGFMTREFLKSLRKPFGDFMEPKFEFAVKFNALELDDSDLAIFIAVIILSGDRPGLLNVKPIEDIQDNLLQALELQLKLNHPESSQLFAKLLQKMTDLRQIVTEHVQLLQVIKKTETDMSLHPLLQEIYKDLY
The molecule B8 gave a Kd with SIRT1 NTD(3HB)-CD of 111000 nM.

B9: PPARγ LBD (protein)
chain: PESADLRALAKHLYDSYIKSFPLTKAKARAILTGKTTDKSPFVIYDMNSLMMGEDKIKFQHITPLQEQSKEVAIRIFQGCQFRSVEAVQEITEYAKSIPGFVNLDLNDQVTLLKYGVHEIIYTMLASLMNKDGVLISEGQGFMTREFLKSLRKPFGDFMEPKFEFAVKFNALELDDSDLAIFIAVIILSGDRPGLLNVKPIEDIQDNLLQALELQLKLNHPESSQLFAKLLQKMTDLRQIVTEHVQLLQVIKKTETDMSLHPLLQEIYKDLY
For the molecule B9, binding in the assay with SIRT1 NTD(3HB)-CD was characterised by a dissociation constant (Kd) of 210 nM.
